Assay results reported in patent US12662540B2, “Compositions and methods for inhibition of MICA/B shedding” (DANA-FARBER CANCER INSTITUTE, INC., priority 2017, dated 2026).
“Also recorded” adds a separate entry of the source.

What was measured:
A375 melanoma cell line = experiment: In vitro assay for inhibition of MICA shedding, A375 cells (sandwich ELISA of supernatant); assay type: cell-based, human; details: A375 cells treated for 24 hours
Procedure: Tumor cells (5×10^4 or 1×10^5 per well, depending on the cell line) were cultured for 24 to 72 hours in 96-well plates (flat-bottom plates for adherent cell lines, U-bottom plates for suspension cell lines). Human and murine cell lines were cultivated in RPMI-1640 or DMEM media, respectively, supplemented with 10% fetal bovine serum (FBS), 1× Glutamax® (Gibco), and 1× Penicillin and Streptomycin (Gibco). MICA or control antibodies were added at different concentrations, and shed MICA/B was then detected in supernatants by ELISA using the Human MICA ELISA kit (Ab59569, Abcam) or Human MICB DuoSet ELISA kit (DY1599, R&D Systems), using the procedures recommended by the manufacturers. For both assays, standard curves were generated using recombinant MICA*008 or MICB*005 extracellular domain proteins that had been expressed using the Baculovirus system.

B16F10-MICA cells = experiment: B16F10 metastasis model in immunocompetent mice; assay type: in vivo, C57BL/6 mice
Procedure: The B16F10 cells were transduced with the luciferase-based lentiviral vector to express MICA. B16F10-MICA cells (5×10^5) were injected intravenously into C57BL/6 mice through the tail vein. Fewer tumor cells (4×10^5) were injected into NK cell-deficient mice given that the absence of NK cells results in a very large number of metastases. 7C6 or isotype control antibodies (MPC-11 or C1184, BioXcell, which have mIgG2b and mIgG2a isotypes, respectively) were administered intraperitoneally on days 1, 2, 7 and 10 at a dose of 200 μg per mouse. Antibody blockade and depletion were performed as described previously (24). For antibody-based depletion of CD8 T cells or NK cells, 100 μg per mouse of anti-CD8 (5358, BioXcell), anti-NK1.1 (PK136, BioXcell), and anti-asialo(as)GM1 (Wako Chemicals) were given on days −1, 0, and 7. For antibody blockade, anti-NKG2D (HMG2D, BioXcell) or control IgG (MOPC-21) were given at 200 μg per mouse on days −1, 0, 5, 7 and 10. Blood samples were collected at multiple time points by retro-orbital bleeding under isoflurane anesthesia. Mice were euthanized by CO2 inhalation, lungs were perfused with PBS and fixed in formalin solution, and the number of superficial metastases was counted under a stereomicroscope. Histology was performed by the Rodent Histopathology Core of the Dana-Farber/Harvard Cancer Center using lungs that had not been perfused with PBS.
Macrophages were depleted by intravenous injection of 0.2 ml clodronate liposomes (Encapsula NanoSciences LLC). In the humanized and B16F10-MICA metastasis models, 0.2 ml of clodronate liposomes or control liposomes were injected i.v. (on the same day of tumor cell inoculation and then once weekly).

RPMI-8226 cell line = experiment: Proteasome inhibitor combination with MICA/B antibody, multiple myeloma cell lines; assay type: cell-based, human

B1: 7C6: monoclonal antibody from mice immunized with recombinant MICA α3 domain; parental mIgG2b; VH SEQ ID NO: 7, VL SEQ ID NO: 8 (antibody)
VH: QIQLVQSGPELKKPGETVKVSCKASGYMFTNYAMNWVKQAPEKGLKWMGWINTHTGDPTYADDFKGRIAFSLETSASTAYLQINNLKNEDTATYFCVRTYGNYAMDYWGQGTSVTVSSAKTTAPSVYPLAPVCGDTTGSSVTLGCLVKGYFPEPVTLTWNSGSLSSGVHTFPAVLQSDLYTLSSSVTVTSS
VL: DIQMTQTTSSLSASLGDRVTISCSASQDISNYLNWYQQKPDGTVKLLIYDTSILHLGVPSRFSGSGSGTDYSLTISNLEPEDIATYYCQQYSKFPRTFGGGTTLEIK
modifications: mAb 7C6 heavy chain amino acid sequence; mAb 7C6 light chain amino acid sequence
A375 melanoma cell line
  MICA shedding (shed MICA released into supernatant): inhibit MICA release into the supernatant
B16F10-MICA cells; B16F10-MICA i.v. in C57BL/6 mice
  shed MICA in serum: undetectable; also recorded: reduced shed MICA in the sera
B16F10-MICA cells; anti-asGM1, anti-NK1.1 or anti-CD8β
  therapeutic activity against lung metastases after NK cell or CD8 T cell depletion: NK cells, but not CD8 T cells, were essential for the therapeutic activity
B16F10-MICA cells; lung metastases day 14
  therapeutic activity in Prf1−/− and Ifng−/− mice: therapeutic efficacy was lost in perforin (Prf1) but not IFNγ (Ifng) deficient mice; also recorded: Perforin but not interferon-γ expression is required for therapeutic activity
RPMI-8226 cell line; 1 nM bortezomib, versus PBS+Isotype
  human NK cell cytotoxicity against RPMI-8226, bortezomib plus antibody: Human NK cell cytotoxicity is increased
RPMI-8226 cell line; RPMI-8226, 24 hours, 10 mg/ml 7C6
  surface MICA/B, antibody plus proteasome inhibitor: expresses higher levels of surface MICA/B
